Biological target: GST-human NOGO-A56 (human) (UniProt Q9NQC3)
Assay: SPR (Biacore 3000), GST-human NOGO-A56 on CM5 chip, antibody as analyte; single experiment

GST-human NOGO-A56 (human), sequence (Q9NQC3 586-785): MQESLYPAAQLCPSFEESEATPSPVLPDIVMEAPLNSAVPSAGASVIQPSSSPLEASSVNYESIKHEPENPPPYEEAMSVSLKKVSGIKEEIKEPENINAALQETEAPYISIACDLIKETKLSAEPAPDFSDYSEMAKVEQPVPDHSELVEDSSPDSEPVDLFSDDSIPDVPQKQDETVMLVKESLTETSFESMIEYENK

Kd: 57 pM | koff: 8.25e-05 s⁻¹ | kon: 1.44e+06 M⁻¹ s⁻¹
Substance: 11C7 (chimeric version) (antibody)

Reference: US20110054149A1
